These results are taken from US20240293561A1, “BRAIN PERMEABLE MULTIFUNCTIONAL SYSTEM AND USES THEREOF” (NANOCARRY THERAPEUTICS LTD., priority 2021, published 2024).

This data set is described as follows: Delivery of cisPt&IgG1&Ins-GNPs into mice brain, Au and Pt measured by ICP-OES. In kind it is in vivo, Male BALB/c mice. To be noted: 8 hours after IV injection, after perfusion.

Description: Male BALB/c mice were divided into four treatment groups: • Group 1: Anti-IgG1 & insulin-conjugated GNPs (IgG1&Ins-GNPs; n=2) • Group 2: Cisplatin & insulin-conjugated GNPs (CisPt&Ins-GNPs; n=2) • Group 3: Multifuctional GNPs (cisPt&IgG1&Ins-GNPs; n=2) • Group 4: Free cisplatin (n=2)
Mice were injected intravenously with IgG1&Ins-GNPs (200 μl, 25 mg/ml), cisPt&Ins-GNPs (200 μl of 25 mg/ml), cisPt&IgG1&Ins-GNPs (200 μl of 25 mg/ml), or with equivalent amounts of free cisplatin. Eight hours post injection, mice underwent perfusion to remove all the particles residing within the blood vessels. Then, mice brains were extracted and analyzed using ICP-OES to measure the amounts of Au and Pt that penetrated into the brain (FIGS. 6A and 6B, respectively).

As to “cisPt&Ins-GNPs: GNPs conjugated with insulin and cisplatin; control particle”, the “amount of Pt within the brain compared with equivalent dose of free cisplatin” value is on record as “significantly higher”.
